Measured values reported in article PMC4046507 (2014).

Molecular target: T1, proteolipoprotein (PLP), substituted analog peptide on I-Ag7 (mouse, substituted analog of PLP 56-70 carrying lysine for tyrosine at positions 57 and 59 (residues worked out from the printed peptide and this description; the analog's own residues are not given))
T1 peptide: DKEKLINVIHAFQYV
Experiment: cytokine release

binding result: recognises
B1: Th2-derived TCRαβ transgenic receptor (TRAV17 TRAJ50 / TRBV31 TRBJ2-3) (TCR)
alpha TRAV17 TRAJ50 CDR3: CALEGIASSSFSKLVF
beta TRBV31 TRBJ2-3 CDR3: CAWSLGGGAETLYF
